Experimental data reported in paper PMC2206725, “Characterization of a negative transcriptional element in the BRCA1 promoter”.
Positions count from the first letter of the chain named.

B1: UPFR6 (dsDNA)
DNA 1: CCTTGGTTTCCGTGGCAACGGAAAAGCGCGGGAATTACAG
DNA 2: CTGTAATTCCCGCGCTTTTCCGTTGCCACGGAAACCAAGG
B2: UPFR6mGA (dsDNA)
DNA 1: B1 DNA 1 with C10A, C11A
DNA 2: B1 DNA 2 with G30T, G31T
B3: UPFR6mUS (dsDNA)
DNA 1: B1 DNA 1 with A17G, A18G, C19T, G20T, G21T
DNA 2: B1 DNA 2 with C20A, C21A, G22A, T23C, T24C
B4: UPFR6mGAmUS (dsDNA)
DNA 1: CCTTGGTTTAAGTGGCGGTTTAAAAGCGCGGGAATTACAG
DNA 2: CTGTAATTCCCGCGCTTTTAAACCGCCACTTAAACCAAGG
B5: UP (dsDNA)
DNA 1: CCTTGGTTTCCGTGGCAACGGAACCTT
DNA 2: AAGGTTCCGTTGCCACGGAAACCAAGG
B6: UPFR6mUP (dsDNA)
DNA 1: CCTTCTTTTAAGTTTCAACGGAAAAGCGCGGGAATTACAG
DNA 2: CTGTAATTCCCGCGCTTTTCCGTTGAAACTTAAAAGAAGG

The binders below were run against GABP alpha (MBP fusion from pMAL-C2);GABP beta (MBP fusion from pMAL-C2) (Homo sapiens;Homo sapiens, UniProt Q06546;Q06547 1-454;1-395, |) (assay: EMSA; Bandshift conditions as in ref [16], not given; 6% nondenaturing acrylamide gel; recombinant proteins eluted in 25 mM HEPES pH 7.6, 0.1 mM EDTA, 40 mM KCl, 10%). Settings: protein: recombinant;recombinant; tags: MBP N-terminal (pMAL-C2 vector);MBP N-terminal (pMAL-C2 vector); copies: 1;1; label: 32P.
Chain of GABP alpha (MBP fusion from pMAL-C2);GABP beta (MBP fusion from pMAL-C2) (Q06546 whole entry, chain 1 of 2, the tested form may be a part): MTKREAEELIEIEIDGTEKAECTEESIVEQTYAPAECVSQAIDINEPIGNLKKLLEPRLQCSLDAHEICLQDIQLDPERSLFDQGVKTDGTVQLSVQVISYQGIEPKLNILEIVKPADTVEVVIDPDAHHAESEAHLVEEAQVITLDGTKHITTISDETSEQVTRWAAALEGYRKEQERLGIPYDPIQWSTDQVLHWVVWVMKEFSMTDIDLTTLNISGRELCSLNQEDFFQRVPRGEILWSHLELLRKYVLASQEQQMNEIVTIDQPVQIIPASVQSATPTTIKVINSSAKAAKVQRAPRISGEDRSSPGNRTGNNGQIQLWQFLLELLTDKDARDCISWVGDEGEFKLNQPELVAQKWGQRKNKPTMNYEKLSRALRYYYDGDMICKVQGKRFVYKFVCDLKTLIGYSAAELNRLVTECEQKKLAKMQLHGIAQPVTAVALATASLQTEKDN
Chain of GABP alpha (MBP fusion from pMAL-C2);GABP beta (MBP fusion from pMAL-C2) (Q06547 whole entry, chain 2 of 2, the tested form may be a part): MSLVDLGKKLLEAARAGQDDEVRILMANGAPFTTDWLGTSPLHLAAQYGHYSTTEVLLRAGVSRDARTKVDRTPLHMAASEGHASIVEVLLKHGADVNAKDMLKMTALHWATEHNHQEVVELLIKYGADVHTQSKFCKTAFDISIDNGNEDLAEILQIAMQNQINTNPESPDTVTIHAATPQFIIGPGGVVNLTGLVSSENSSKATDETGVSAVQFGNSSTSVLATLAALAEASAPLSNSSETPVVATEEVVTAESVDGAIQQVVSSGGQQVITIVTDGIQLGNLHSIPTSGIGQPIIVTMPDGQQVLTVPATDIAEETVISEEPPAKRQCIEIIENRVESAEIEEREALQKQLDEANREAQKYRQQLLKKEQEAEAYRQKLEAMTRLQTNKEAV

Row | Binder | binding result
1 | B1 | binds
2 | B2 | no binding
3 | B3 | binds
4 | B4 | no binding
5 | B5 | binds
6 | B6 | no binding
